Measurements taken from the supplement of paper PMC9233669.
Fewer inactive variants are shown than the library holds.

Key:
biotinyl-Met-oxazolone = experiment: self-aminoacylation, catalytic enhancement (BMO) (fold over background); higher = more active; k-Seq, kA / k0A0; sequences stand for … in GGGAAUGGAUCCACAUCUACGAAUUC…UUCACUGCAGACUUGACGAAGCUG
Procedure, shortened: (§1)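 Each biotinyl-aminoacyl-oxazolone, at 2–1250 μM, was incubated with mutagenized RNA pools (0.43 μM) carrying a 21-nt variable region. The 50 μL reactions contained HEPES/NaCl/KCl/MgCl2/CaCl2 buffer with 5% acetonitrile at pH 6.9–7.0 and ran for 90 minutes at room temperature. After streptavidin capture, RNA was measured by qPCR in triplicate and by Illumina sequencing, and catalytic enhancement was calculated as median kA over the uncatalyzed rate from a pseudo-first-order fit of per-sequence fraction reacted.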

biotinyl-Trp-oxazolone = experiment: self-aminoacylation, catalytic enhancement (BWO) (fold over background); higher = more active; k-Seq, kA / k0A0; sequences stand for … in GGGAAUGGAUCCACAUCUACGAAUUC…UUCACUGCAGACUUGACGAAGCUG
Procedure, shortened: as §1

biotinyl-Val-oxazolone = experiment: self-aminoacylation, catalytic enhancement (BVO) (fold over background); higher = more active; k-Seq, kA / k0A0; sequences stand for … in GGGAAUGGAUCCACAUCUACGAAUUC…UUCACUGCAGACUUGACGAAGCUG
Procedure, shortened: as §1

biotinyl-Phe-oxazolone = experiment: self-aminoacylation, catalytic enhancement (BFO) (fold over background); higher = more active; k-Seq, kA / k0A0; sequences stand for … in GGGAAUGGAUCCACAUCUACGAAUUC…UUCACUGCAGACUUGACGAAGCUG
Procedure, shortened: as §1

biotinyl-Leu-oxazolone = experiment: self-aminoacylation, catalytic enhancement (BLO) (fold over background); higher = more active; k-Seq, kA / k0A0; sequences stand for … in GGGAAUGGAUCCACAUCUACGAAUUC…UUCACUGCAGACUUGACGAAGCUG
Procedure, shortened: as §1

biotinyl-Ile-oxazolone = experiment: self-aminoacylation, catalytic enhancement (BIO) (fold over background); higher = more active; k-Seq, kA / k0A0; sequences stand for … in GGGAAUGGAUCCACAUCUACGAAUUC…UUCACUGCAGACUUGACGAAGCUG
Procedure, shortened: as §1

| Sequence | self-aminoacylation (biotinyl-Met-oxazolone) | self-aminoacylation (biotinyl-Trp-oxazolone) | self-aminoacylation (biotinyl-Val-oxazolone) | self-aminoacylation (biotinyl-Phe-oxazolone) | self-aminoacylation (biotinyl-Leu-oxazolone) | self-aminoacylation (biotinyl-Ile-oxazolone) |
| --- | --- | --- | --- | --- | --- | --- |
| AAGUUUGCUAGUAGUCGCAAU [Fam3.1 aminoacylation ribozyme variant] | 0.922 | 0.724 | 1.08 | 1.2 | 0.95 | 1.01 |
| CUAAUUCAAACAAGCGGUCUG [Fam1A.1 aminoacylation ribozyme variant] | 1.1 | 0.632 | 0.972 | 0.798 | 0.847 | 0.874 |
| CUUCACCUAGGUCAUCGGGGG [Fam2.2 aminoacylation ribozyme variant] | 2.35 | 3.57 | 2.37 | 3.92 | 1.86 | 2.31 |
| CCACACUUGAAGCAAUCGGAC [Fam1B.1 aminoacylation ribozyme variant] | 0.961 | 0.769 | 1.18 | 0.658 | 0.869 | 0.951 |
| AUUACCCACGUCAUCGAGUGA [Fam2.1 aminoacylation ribozyme variant] | 4.44 | 4.53 | 2.9 | 15.6 | 4.38 | 2.46 |
| CUACUUCGAACAAUCGGUCUC [Fam1A.1 aminoacylation ribozyme variant] | 0.66 | 0.507 | 0.683 | 0.828 | 0.648 | 0.781 |
| AUUCACAUAGGUCACCGGGUG [Fam2.2 aminoacylation ribozyme variant] | 5.7 | 5.42 | 4.6 | 42.3 | 7.78 | 4.8 |
| GUUACCCUGGUCAUCGUGUGA [Fam2.1 aminoacylation ribozyme variant] | 4.3 | 6.06 | 3.08 | 30.3 | 4.75 | 2.6 |
| AAGAUUGCUAAUAGUCGCAGG [Fam3.1 aminoacylation ribozyme variant] | 1.49 | 1.83 | 1.64 | 7.75 | 2.05 | 1.34 |
| AUUACCCUGUUUAUCGAGUGA [Fam2.1 aminoacylation ribozyme variant] | 12.6 | 15.7 | 6.02 | 62.5 | 12.3 | 5.5 |
| AUGCACCUAGGUCAUCGGGUG [Fam2.2 aminoacylation ribozyme variant] | 5.65 | 6.01 | 4.11 | 30.1 | 6.25 | 4.06 |
| AUACAUCUAGGUCAUCGGGUG [Fam2.2 aminoacylation ribozyme variant] | 4.39 | 5.51 | 2.85 | 24.4 | 4.8 | 3.19 |
| AAGUUUGCUAAAAGUAGCAAG [Fam3.1 aminoacylation ribozyme variant] | 1.16 | 1.03 | 0.783 | 1.04 | 0.818 | 1.02 |
| AUUAUCCUGGUCCUCGAGUGA [Fam2.1 aminoacylation ribozyme variant] | 4.56 | 6.54 | 2.33 | 21.9 | 5.19 | 2.4 |
| CCACACUCCAAGCAACCGGUC [Fam1B.1 aminoacylation ribozyme variant] | 0.814 | 0.654 | 1.44 | 0.853 | 1.19 | 1.24 |
| AUUCUCCGAGGUCAUCGGGUG [Fam2.2 aminoacylation ribozyme variant] | 16.7 | 14.7 | 10.6 | 141 | 22 | 9.69 |
| CUACUUCAAAUAAUCGGUCGG [Fam1A.1 aminoacylation ribozyme variant] | 0.909 | 5.93 | 0.832 | 6.6 | 1.13 | 1.07 |
| AACUUUGCUAAUAGUCGCAGG [Fam3.1 aminoacylation ribozyme variant] | 3.29 | 3.48 | 2.29 | 14.1 | 2.75 | 2.29 |
| AUUACCAUGGCCAUCGAGUGA [Fam2.1 aminoacylation ribozyme variant] | 2.67 | 3.98 | 2.27 | 2.77 | 3.1 | 1.83 |
| AUUACCUAGGUCAUCGAGUGA [Fam2.1 aminoacylation ribozyme variant] | 6.35 | 7.91 | 4.01 | 6.96 | 7.92 | 4.2 |
| AUUACCCUGGUCAUCGAGCGC [Fam2.1 aminoacylation ribozyme variant] | 2.53 | 1.16 | 2.29 | 1.86 | 2.33 | 2.09 |
| CCACGCUUCAAGCAAUCGGGC [Fam1B.1 aminoacylation ribozyme variant] | 1.25 | 1.41 | 2.04 | 1.35 | 0.924 | 1.08 |
| CUACUUCAAGCAAUCCGUCUG [Fam1A.1 aminoacylation ribozyme variant] | 0.833 | 1.25 | 1.17 | 1.86 | 0.941 | 1 |
| AUUACCUUGGUCAUGGAGUGA [Fam2.1 aminoacylation ribozyme variant] | 4.16 | 5.57 | 2.72 | 4.26 | 4.42 | 2.97 |
| CCAGACUUCACGCAAUCGGUC [Fam1B.1 aminoacylation ribozyme variant] | 1.79 | 1.65 | 1.76 | 4.39 | 1.6 | 1.64 |
| AAGUUUGCUACUAGUCACAAG [Fam3.1 aminoacylation ribozyme variant] | 0.969 | 1.29 | 1.02 | 2.36 | 0.772 | 0.962 |

| Sequence | self-aminoacylation (biotinyl-Met-oxazolone) | self-aminoacylation (biotinyl-Trp-oxazolone) | self-aminoacylation (biotinyl-Val-oxazolone) | self-aminoacylation (biotinyl-Phe-oxazolone) | self-aminoacylation (biotinyl-Leu-oxazolone) | self-aminoacylation (biotinyl-Ile-oxazolone) |
| --- | --- | --- | --- | --- | --- | --- |
| CCCCACUUCAAGCAAUCGCUC [Fam1B.1 aminoacylation ribozyme variant] | 2.93 | 4.28 | 2.55 | 8.76 | 2.99 | 2.08 |
| AAGUUUGCGAAUAGUCGGAAG [Fam3.1 aminoacylation ribozyme variant] | 1.38 | 2.32 | 0.964 | 0.764 | 1.1 | 0.977 |
| AAGUUUGCUAAGAGGCGCAAG [Fam3.1 aminoacylation ribozyme variant] | 0.759 | 0.895 | 0.656 | 1.21 | 0.547 | 0.727 |
| UUUACACUGGUCAUCGAGUGA [Fam2.1 aminoacylation ribozyme variant] | 5.97 | 7.26 | 3 | 23.9 | 5.04 | 3.29 |
| AAGUUUGCUAAUACUCGCAAG [Fam3.1 aminoacylation ribozyme variant] | 0.569 | 0.607 | 0.652 | 0.812 | 0.553 | 0.659 |
| AAGUUCGCUAUUAGUCGCAAG [Fam3.1 aminoacylation ribozyme variant] | 1.82 | 1.44 | 1.5 | 2.21 | 2.14 | 2 |
| AUUCACCUAGGUCAUCGCAUG [Fam2.2 aminoacylation ribozyme variant] | 1.04 | 1.06 | 1.28 | 0.374 | 1.22 | 1.05 |
| CAACUUGAAACAAUCGGUCUG [Fam1A.1 aminoacylation ribozyme variant] | 1.24 | 1.02 | 1.11 | 1.36 | 1.36 | 1.15 |
| CUUCUUCGAACAAUCGGUCUG [Fam1A.1 aminoacylation ribozyme variant] | 0.768 | 0.443 | 0.743 | 0.708 | 0.706 | 0.627 |
| CUACUUCAAAUUAUCGGUCUG [Fam1A.1 aminoacylation ribozyme variant] | 1.01 | 0.849 | 1.11 | 0.806 | 0.945 | 1.12 |
| AUACUUCACACAAUCGGUCUG [Fam1A.1 aminoacylation ribozyme variant] | 0.927 | 0.814 | 0.861 | 1.15 | 0.683 | 0.901 |
| CUACGUCAAACAAUCGAUCUG [Fam1A.1 aminoacylation ribozyme variant] | 0.903 | 1.06 | 0.794 | 0.827 | 0.617 | 0.801 |
| AUUCACCUAGAUCAUCGAGUG [Fam2.2 aminoacylation ribozyme variant] | 1.33 | 0.729 | 1.32 | 1.68 | 1.64 | 1.14 |
| CCAGACUUGAAGCAAUCGGUC [Fam1B.1 aminoacylation ribozyme variant] | 1.08 | 1.07 | 1.12 | 0.942 | 1.16 | 1.07 |
| CCACACUUUAAGCAAUCGGUG [Fam1B.1 aminoacylation ribozyme variant] | 3.89 | 3.9 | 2.38 | 22.9 | 5.4 | 2.93 |
| AAGUUUGCUAAGAGUCUCAAG [Fam3.1 aminoacylation ribozyme variant] | 0.651 | 1.01 | 0.823 | 1.02 | 0.775 | 0.81 |
| AUUAGCCUGGUCUUCGAGUGA [Fam2.1 aminoacylation ribozyme variant] | 5.53 | 6.87 | 3.28 | 35.9 | 5.63 | 3.5 |
| CUUCUUCAAACAAUCGGGCUG [Fam1A.1 aminoacylation ribozyme variant] | 1.25 | 4.55 | 1.06 | 5.81 | 1.43 | 1.29 |
| AUUCAGCGAGGUCAUCGGGUG [Fam2.2 aminoacylation ribozyme variant] | 6 | 7.06 | 5.33 | 44 | 7.8 | 4.46 |
| AUUCCCCCGGUCAUCGAGUGA [Fam2.1 aminoacylation ribozyme variant] | 8.57 | 10.7 | 4.37 | 59.9 | 8.86 | 4.4 |
| CCGCACUUCAAGCAAGCGGUC [Fam1B.1 aminoacylation ribozyme variant] | 1.43 | 2 | 1.67 | 1.43 | 1.31 | 1.65 |
| AUUACUCUGGUAAUCGAGUGA [Fam2.1 aminoacylation ribozyme variant] | 7.65 | 9.06 | 3.46 | 45.5 | 8.85 | 3.66 |
| AUGACCCUGGUCAUCGAGUGC [Fam2.1 aminoacylation ribozyme variant] | 7.15 | 4 | 2.96 | 17.4 | 6.92 | 2.61 |
| ACACACUUCAAGCUAUCGGUC [Fam1B.1 aminoacylation ribozyme variant] | 1.03 | 0.982 | 1.2 | 1.15 | 1.1 | 1.33 |
| AUGACCCUGGUCUUCGAGUGA [Fam2.1 aminoacylation ribozyme variant] | 5.04 | 6.19 | 2.95 | 30.4 | 6.24 | 2.9 |
